# From publication PMC6237275 (Chemical science, 2013)
# B1: CP61 (cyclo-SGWTVVRMY) (peptide)
# peptide: SGWTVVRMY
# modifications: cyclic peptide (cyclo-SGWTVVRMY)
# Biological target: His–CtBP2 (UniProt P56545 1-445)
# Assay: ELISA
binder,measurement,value
B1,IC50,19 ± 4 µM
